Holding throughout (conditions): both partners purified
Assay [1] addresses T1, PSD-95 PDZ1 (aa 61-151) (UniProt P78352 61-151).
T1 construct: postsynaptic density protein 95 (PSD-95), PDZ1, aa 61-151
The experiment in a line: SPR; PDZ domain immobilised by amine coupling (CM5 for PDZ1 and PDZ2, CM4 for PDZ3), peptides injected; Biacore X100, 25.0°C, HBS-EP+ (10 mM HEPES pH 7.4, 150 mM NaCl, 3 mM EDTA, 0.05% Surfactant P-20); 1 mM DTT for peptides with a cysteine; Kd from steady-state responses, 1:1 model with a linear component.

In assay [2] the target is T2, PSD-95 PDZ2 (aa 155-249) (UniProt P78352 155-249).
T2 construct: postsynaptic density protein 95 (PSD-95), PDZ2, aa 155-249
The assay is described as above.

Assay [3] concerns the target T3, PSD-95 PDZ3 (aa 309-401) (UniProt P78352 309-401).
T3 construct: postsynaptic density protein 95 (PSD-95), PDZ3, aa 309-401
The description is as above.

In another assay the target is T4, PSD-95 PDZ3 (aa 309–401) (UniProt P78352 309-401).
T4 construct: postsynaptic density protein 95 (PSD-95), PDZ3, aa 309–401
The experiment in a line: fluorescence polarisation; competition: 25 nM Cy5-labeled probe and a constant concentration of PDZ protein corresponding to the K d of the probe, twofold dilution series of unlabeled peptide (typically 1–512 µM); 10 mM HEPES pH 7.4, 150 mM NaCl, 1% BSA; room temperature; K i calculated from the IC50.

For another assay, the target named is T5, PSD-95 PDZ2 (aa 155–249) (UniProt P78352 155-249).
T5 construct: postsynaptic density protein 95 (PSD-95), PDZ2, aa 155–249; also called isolated PDZ2
Described as above.

For the next assay, the target named is PSD-95 PDZ1 (aa 61–151) (UniProt P78352 61-151). The assay is described as above.
Assay [4] concerns the target T1, PSD-95 PDZ1 (aa 61-151). The experiment in a line: fluorescence polarisation; competition: 25 nM Cy5-labeled probe (Cy5-KIF1Bα for PDZ1, Cy5-GluN2B for PDZ2, Cy5-CRIPT for PDZ3), constant PDZ protein at the probe's Kd, twofold dilution series of unlabeled peptide (typically 1–512 µM); 10 mM HEPES pH 7.4, 150 mM NaCl, 1% BSA, room temperature; Ki calculated from IC50.

Assay [5] concerns the target T2, PSD-95 PDZ2 (aa 155-249). The assay is described as above.
Assay [6] has as its target T3, PSD-95 PDZ3 (aa 309-401). The assay is described as above.

Ends that are not written are not given here.

B1: 5-HTR2C C-tail peptide (human) (peptide)
peptide: YDDRSVVSERISSV
notes: N-terminal linker; YDDR because the C-tail has no Tyr or Trp, by the rule of the methods; 5-hydroxytryptamine receptor 2C, human, 10 C-terminal aa; source: synthetic peptide (Schafer-N)
Take B1: the Kd in the assay with PSD-95 PDZ1 (aa 61-151) [1] was found to be 160 µM; in the assay with PSD-95 PDZ2 (aa 155-249) [2], 62 µM; in the assay with PSD-95 PDZ3 (aa 309-401) [3] it was 780 µM.
With KYVSYNNLVI-OH (not fully specified) [metabotropic glutamate receptor mGlu7(a) C-tail peptide, human], the results for the inhibition constant (Ki) in the assay with PSD-95 PDZ3 (aa 309–401), with PSD-95 PDZ2 (aa 155–249) and with PSD-95 PDZ1 (aa 61–151) were above 1000 µM, above 1000 µM and 610 µM, respectively.

B2: BAI1 C-tail peptide (human) (peptide)
peptide: YDDRQDIIDLQTEV
notes: N-terminal linker; YDDR because the C-tail has no Tyr or Trp, by the rule of the methods; BAI1 receptor, human, 10 C-terminal aa; also called BAI1 receptor; source: synthetic peptide (Schafer-N)
For the molecule B2, the Kd in the assay with PSD-95 PDZ1 (aa 61-151) [1] was determined as 120 µM; with PSD-95 PDZ2 (aa 155-249) [2], 74 µM; in the assay with PSD-95 PDZ3 (aa 309-401) [3], 2400 µM.
RNCSTNDSLL-OH (not fully specified) [β2-adrenergic receptor (β2AR) C-tail peptide, human]: the Ki with PSD-95 PDZ3 (aa 309–401) was above 1000 µM; in the assay with PSD-95 PDZ2 (aa 155–249), 720 µM; in the assay with PSD-95 PDZ1 (aa 61–151) it was above 1000 µM.

B3: KIF1Bα C-tail peptide (human), unlabeled (peptide)
peptide: YDDRNLKAGRETTV
notes: N-terminal linker (solubility, concentration determination); YDDR because the C-tail has no Tyr or Trp, by the rule of the methods; source: synthetic peptide (Schafer-N)
B3: the Ki is 7 µM in the assay with PSD-95 PDZ1 (aa 61-151) [4], 3.8 µM in the assay with PSD-95 PDZ2 (aa 155-249) [5] and 14 µM with PSD-95 PDZ3 (aa 309-401) [6]. The Kd with PSD-95 PDZ1 (aa 61-151) [1] was found to be 2.2 µM; with PSD-95 PDZ2 (aa 155-249) [2], 1.1 µM.

B4: CRIPT C-tail peptide (human), unlabeled (peptide)
peptide: LDTKNYKQTSV
notes: No YDDR/DDR linker is told for this peptide
B4: the Ki with PSD-95 PDZ3 (aa 309-401) [6] was 2.9 µM. This molecule also returned a Kd with PSD-95 PDZ3 (aa 309-401) [3] of 1.5 µM.

B5: β1AR C-tail peptide (human) (peptide)
peptide: YDDRRPGFASESKV
notes: N-terminal linker; YDDR because the C-tail has no Tyr or Trp, by the rule of the methods; β1-adrenergic receptor, human, 10 C-terminal aa; also called β1-adrenergic receptor; source: synthetic peptide (Schafer-N)
In the case of B5, the dissociation constant Kd in the assay with PSD-95 PDZ2 (aa 155-249) [2] is 180 µM; in the assay with PSD-95 PDZ3 (aa 309-401) [3], 400 µM.

B6: 5-HTR2A C-tail peptide (human) (peptide)
peptide: YDDRDGVNEKVSCV
notes: N-terminal linker; YDDR because the C-tail has no Tyr or Trp, by the rule of the methods; 5-hydroxytryptamine receptor 2A, human, 10 C-terminal aa; also called 5-hydroxytryptamine receptor 2A; source: synthetic peptide (Schafer-N)
As to B6, the Kd with PSD-95 PDZ1 (aa 61-151) [1] is 630 µM; in the assay with PSD-95 PDZ2 (aa 155-249) [2], 110 µM.

B7: SSTR3 C-tail peptide (human) (peptide)
peptide: DDRKSSTMRISYL
notes: N-terminal linker; DDR (Tyr omitted) because the C-tail contains Tyr, by the rule of the methods; somatostatin receptor 3, human, 10 C-terminal aa; source: synthetic peptide (Schafer-N)
In turn, B7 yielded a Kd with PSD-95 PDZ3 (aa 309-401) [3] of 240 µM.

B8: β2AR C-tail peptide (human) (peptide)
peptide: YDDRRNCSTNDSLL
notes: N-terminal linker; YDDR because the C-tail has no Tyr or Trp, by the rule of the methods; β2-adrenergic receptor, human, 10 C-terminal aa; source: synthetic peptide (Schafer-N)
Molecule B8 returned a Kd with PSD-95 PDZ2 (aa 155-249) [2] of 2090 µM.

B9: SSTR1 C-tail peptide (mouse) (peptide)
peptide: YDDRGTCASRISTL
notes: N-terminal linker; YDDR because the C-tail has no Tyr or Trp, by the rule of the methods; somatostatin receptor 1, mouse, 10 C-terminal aa; also called mSSTR1; source: synthetic peptide (Schafer-N)
As to B9, binding in the assay with PSD-95 PDZ1 (aa 61-151) [1] was put at a Kd of 270 µM.

B10: SSTR1 C-tail peptide (human) (peptide)
peptide: YDDRGTCTSRITTL
notes: N-terminal linker; YDDR because the C-tail has no Tyr or Trp, by the rule of the methods; somatostatin receptor 1, human, 10 C-terminal aa; also called hSSTR1; source: synthetic peptide (Schafer-N)
For B10, the results for the equilibrium dissociation constant (Kd) in the assay with PSD-95 PDZ1 (aa 61-151) [1] and with PSD-95 PDZ2 (aa 155-249) [2] were 84 µM and 76 µM, respectively.

B11: GluN2B C-tail peptide (human), unlabeled (peptide)
peptide: YEKLSSIESDV
notes: No YDDR/DDR linker is told for this peptide; also called NR2B
Consider B11, for which the Ki with PSD-95 PDZ1 (aa 61-151) [4] was 29 µM; with PSD-95 PDZ2 (aa 155-249) [5], 5.5 µM; in the assay with PSD-95 PDZ3 (aa 309-401) [6], above 1000 µM. Binding with PSD-95 PDZ2 (aa 155-249) [2] was put at a Kd of 1.4 µM.
In the case of RDYKQSSSTL-OH (not fully specified) [metabotropic glutamate receptor mGlu1(a) C-tail peptide, human], the inhibition constant (Ki) in the assay with PSD-95 PDZ3 (aa 309–401) was above 1000 µM; with PSD-95 PDZ2 (aa 155–249), above 1000 µM; with PSD-95 PDZ1 (aa 61–151) it was 830 µM.

The values are drawn from article PMC3653948, “PDZ Domain-Mediated Interactions of G Protein-Coupled Receptors with Postsynaptic Density Protein 95: Quantitative Characterization of Interactions” (PLoS ONE, 2013).
